In paper PMC314469, “Protein Interaction Networks by Proteome Peptide Scanning” (PLoS Biology, 2004) one finds normalised SPOT signal, Boehringer light units (BLU); mean over the file's lines of this peptide data, which are given here for 11 molecules.

Assay in all cases: SPOT array
The target of experiment [1] is Sho1 SH3 (SHO1_YEAST), P40073.
For experiment [2], the target named is T1, Yfr024 SH3 (LSB3_YEAST), P43603.
T1 chain: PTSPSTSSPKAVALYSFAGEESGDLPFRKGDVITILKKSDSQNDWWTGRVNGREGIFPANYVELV

Experiment [3] addresses T2, Boi1 SH3 (BOI1_YEAST), P38041.
T2 chain: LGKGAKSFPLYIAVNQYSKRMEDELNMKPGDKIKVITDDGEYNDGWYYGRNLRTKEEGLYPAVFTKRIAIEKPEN

Experiment [4] has as its target T3, Yhr016c SH3 (YSC84_YEAST), P32793.
T3 chain: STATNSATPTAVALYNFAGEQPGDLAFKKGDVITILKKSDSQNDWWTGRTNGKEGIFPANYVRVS

Experiment [5] concerns the target T4, Rvs167 SH3 (RV167_YEAST), P39743.
T4 chain: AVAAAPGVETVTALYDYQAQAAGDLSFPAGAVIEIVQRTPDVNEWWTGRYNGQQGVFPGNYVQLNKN

Experiment [6] concerns the target T5, Myo5 SH3 (MYO5_YEAST), Q04439.
T5 chain: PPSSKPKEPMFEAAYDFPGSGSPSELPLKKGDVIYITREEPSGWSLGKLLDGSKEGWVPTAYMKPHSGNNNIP

Experiment [7] has as its target T6, Boi2 SH3 (BOI2_YEAST), P39969.
T6 chain: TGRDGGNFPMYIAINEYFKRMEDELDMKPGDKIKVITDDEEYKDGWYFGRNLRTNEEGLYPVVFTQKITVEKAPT

Sequence of Sho1 SH3 (SHO1_YEAST), P40073 (P40073 295-366): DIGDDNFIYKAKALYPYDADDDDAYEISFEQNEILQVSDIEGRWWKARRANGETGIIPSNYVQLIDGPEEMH

Turning to LDSMKNLPLNPSKK [YDL027C 309-322], the normalised SPOT signal, Boehringer light units (BLU); mean over the file's lines of this peptide in experiment [1] turned out to be 8000; in experiment [2], 348; in experiment [3] it was 178; in experiment [4] it was 78.8; in experiment [5], 72.9; in experiment [6], 268. The molecule also gave a normalised SPOT signal, Boehringer light units (BLU); mean over the file's lines of this peptide in experiment [7] of 41.3.

Regarding LDVRRIYPKGPLLV [YIL113W 50-63], the normalised SPOT signal, Boehringer light units (BLU); mean over the file's lines of this peptide amounted to 131 in experiment [1]; 157 in experiment [2]; 4730 in experiment [3]; 32.3 in experiment [4]; 34.3 in experiment [5]; 232 in experiment [6]. For the same molecule, in experiment [7], the normalised SPOT signal, Boehringer light units (BLU); mean over the file's lines of this peptide worked out at 10.8.

Take LDLSKYGPLPPSRA [YLR143W 384-397]: the normalised SPOT signal, Boehringer light units (BLU); mean over the file's lines of this peptide is 78.9 in experiment [1]; 359 in experiment [2]; 1630 in experiment [3]; 256 in experiment [4]; 207 in experiment [5]; 154 in experiment [6]. In experiment [7], this molecule gave a normalised SPOT signal, Boehringer light units (BLU); mean over the file's lines of this peptide of 20.4.

Consider LGLHKWLPDIPLFE [YOR336W 752-765], for which the normalised SPOT signal, Boehringer light units (BLU); mean over the file's lines of this peptide in experiment [1] turned out to be 10800; in experiment [2], 49; in experiment [3], 180; in experiment [4], 44.6; in experiment [5], 16.5; in experiment [6] it was 168. Further, the normalised SPOT signal, Boehringer light units (BLU); mean over the file's lines of this peptide in experiment [7] is 15.1.

As to LDPGKNTPGLPEET [YAL048C 610-623], the normalised SPOT signal, Boehringer light units (BLU); mean over the file's lines of this peptide was -0 in experiment [1]; 36.6 in experiment [2]; 37.7 in experiment [3]; 15.3 in experiment [4]; 33.4 in experiment [5]; 156 in experiment [6]. Further, the normalised SPOT signal, Boehringer light units (BLU); mean over the file's lines of this peptide in experiment [7] came out at 126.

Take LFGIRNNPFIPITG [YLR214W 271-284]: the normalised SPOT signal, Boehringer light units (BLU); mean over the file's lines of this peptide in experiment [1] was found to be 15.8; in experiment [2] it was 342; in experiment [3] it was 281; in experiment [4], 426; in experiment [5], 139; in experiment [6], 170. The same molecule returned a normalised SPOT signal, Boehringer light units (BLU); mean over the file's lines of this peptide in experiment [7] of 25.5.

With LGPLKYAPHLPFSK [YJL176C 589-602], the normalised SPOT signal, Boehringer light units (BLU); mean over the file's lines of this peptide in experiment [1] was found to be 227; in experiment [2], 213; in experiment [3], 133; in experiment [4], 150; in experiment [5], 81.1; in experiment [6] it was 428. The same molecule came in with a normalised SPOT signal, Boehringer light units (BLU); mean over the file's lines of this peptide in experiment [7] of 71.6.

Consider LFDEKVKPQIPQLR [YML034W 45-58], for which the normalised SPOT signal, Boehringer light units (BLU); mean over the file's lines of this peptide in experiment [1] stood at 18.8; in experiment [2], 42.8; in experiment [3], 59.1; in experiment [4], 15.7; in experiment [5] it was 66.6; in experiment [6], 89.2. For the same molecule, the normalised SPOT signal, Boehringer light units (BLU); mean over the file's lines of this peptide in experiment [7] turned out to be 4.9.

For LEFPKDYPLSPPKL [YMR022W 58-71], the normalised SPOT signal, Boehringer light units (BLU); mean over the file's lines of this peptide in experiment [1] was 78.8; in experiment [2], 64.1; in experiment [3], 110; in experiment [4], 14.8; in experiment [5], 114; in experiment [6] it was 135. In experiment [7], this molecule displayed a normalised SPOT signal, Boehringer light units (BLU); mean over the file's lines of this peptide of 0.

In the case of LGSEKSSPLAPAVA [YDL197C 382-395], the normalised SPOT signal, Boehringer light units (BLU); mean over the file's lines of this peptide in experiment [1] stood at 11.2; in experiment [2] it was 21.4; in experiment [3], 72.6; in experiment [4], 26.8; in experiment [5], 64.8; in experiment [6] it was 122. Further, the normalised SPOT signal, Boehringer light units (BLU); mean over the file's lines of this peptide in experiment [7] amounted to 52.5.

In the case of LDTHKESPLRPKVR [YKR003W 305-318], the normalised SPOT signal, Boehringer light units (BLU); mean over the file's lines of this peptide in experiment [1] was 46.9; in experiment [2], 58.4; in experiment [3], 2820; in experiment [4] it was 32.8; in experiment [5], 34.1; in experiment [6], 199. The molecule further gave a normalised SPOT signal, Boehringer light units (BLU); mean over the file's lines of this peptide in experiment [7] of 18.9.
